Results as given in paper PMC3781837.

Each sequence was assayed against WhiA (Streptomyces venezuelae) (UniProt F2RGQ4) (assay: DNase I footprinting). Details: DNase I footprinting per Sure Track kit (Amersham); buffer, salt, pH and temperature not given in the material.
Sequence of UniProt F2RGQ4 (F2RGQ4 whole entry): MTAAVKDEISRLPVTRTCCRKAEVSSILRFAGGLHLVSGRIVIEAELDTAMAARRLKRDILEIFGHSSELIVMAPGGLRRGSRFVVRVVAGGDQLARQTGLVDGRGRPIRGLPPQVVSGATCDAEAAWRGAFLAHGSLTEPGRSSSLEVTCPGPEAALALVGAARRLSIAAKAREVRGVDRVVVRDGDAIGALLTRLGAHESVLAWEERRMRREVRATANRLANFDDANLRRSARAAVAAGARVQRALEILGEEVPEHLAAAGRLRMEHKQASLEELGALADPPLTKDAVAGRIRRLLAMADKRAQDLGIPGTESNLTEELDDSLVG

Row | Sequence | binding
1 | GACGTGCCGCGCATCCGGGCGGCCACGGACCTGGGCAACGTCCCGATGGCCGCGGCGTTCGCCCGGGCGGGTTACGACGCCTTCGAGCACGCGATCAACTACGTGTGGGACGCGCCGGGCGTGGCGGGTCCCTGACTGCCAGGATGGGGGCGTAGGTCCGTCGACGAGGGGATTTGGCGTGCTCTTCGAGGTGTGGGC (double strand) [treZ promoter probe] | binds
2 | AGCATCCGGTGCACCCTCCCAGTGTCGCACCCGAAGGTGTCGAATCCCGGGAGTGGGCCCGCCGCGACACGCGGAGGGCCCGGAATCGCCTTTAACCCAAGATCTAGTGGTTGGATGGCATCGG (double strand) [nrdR promoter probe] | binds
3 | GTCTCGCGCATGTGAGGGGCGGTGCCGCGCGGGGCACCGGGCCCGGCGGGCCCGGGCCGCACCGACGCGCCGGAATGATCGCTAAGAGGAAATTGTCCGATTAGCGCGTATCGTCGGCCCATGCCCACGCCATACGGATCCCGCGGCGGCATGGCGTTCAGCGCGGACGAGCTGCGTGTGCTCCGCCGTGCCCTCGCCATC (double strand) [sven3229 promoter probe] | no binding
4 | GAACTGGTGGAGAAGTCGGCGAAGCGCTTGCGCGGGGCCGTCCTGATCGGTGCCGACCGCGCCCTGATCCGCGAAGCCCTGGCGCGACACGCCCCGGAGGTACCGGTGGTGGACCTCGACCGGACCGACACTGGGGCGATGTCCGAGGCGGTC (double strand) [ftsW promoter probe] | binds
5 | GACATACCCACTCGGACTACTCCAGTCGACACGCCGAGGGTTTGCCCCTTTTGTAGGGATATCGACCCGTTCGACGACAGCTGGAGGCACCGTGCGGCCGGGAGGCTACGACTACGACAC (double strand) [cslA promoter probe] | binds
6 | GCGCCGCAGCCCGGAGAAACCGAGGGCTTCTCCCCGCAGCGTCATTTGGAGGTTTTGGGACGACACGCCCCTAAACTCGCCCTGGACGTGGTGCTGGCCGACGAGGCCGCCGTGCCCGACCGCGAGTCCCTCGCCGACGCCGCCAAGCGGCTCGGTGCCGC (double strand) [whiAp2 promoter probe] | binds
7 | CCGGAATTCCCACTCAAAAGGCTGGACATTCTCCAGATCAAACGGGCATACGCTCGATGACACGCCGCTTCGGCCCCTAGGATTCCCTCTAACACCTCACCGGTCTCATTCGACAGGAAACCCATGAGCGACACATCCTCCCCCTTCGGCTTCGAGCTCGTGCGGCGCGGTTAGGATCCGCG (double strand) [filP promoter probe] | binds
8 | GGCGGTACGGGAGCGGCCGACGCAGACTGGGAGGAGCGCCCTCTTTCCCGGAGTGCTGGAGGAACCACGGTATGACCGACCTCGCCATCGAGACCGAGGGCCTGGTCAAGGTCTTCGGCAGCAACCGCGCCGTCGACGGGATCGACCTCCGCGTCCCCGCCGGAATCGTCTACGGAGTCCTTGGCCCCAACGGCGC (double strand) [sven3535 promoter probe] | no binding
9 | GCTGCTCCACTCCACCAACGTAGGTCGGGAAGGGGCGGGAACCGGGTCCGGGACACGCCCTTTGGGTGACCTTGCCCCCGAGAACGACCGAAGGTCGGCGTCG (double strand) [sven4724-sven4725 intergenic probe] | binds
